Source: publication PMC12598616, “Design and optimization of caspase-1-responsive fluorescent probes for pyroptosis imaging and anti-pyroptosis drug screening” (Chemical Science, 2025)

Target: T1, caspase-1 (Homo sapiens, UniProt P29466)
T1 sequence (P29466 120-297 limits assumed): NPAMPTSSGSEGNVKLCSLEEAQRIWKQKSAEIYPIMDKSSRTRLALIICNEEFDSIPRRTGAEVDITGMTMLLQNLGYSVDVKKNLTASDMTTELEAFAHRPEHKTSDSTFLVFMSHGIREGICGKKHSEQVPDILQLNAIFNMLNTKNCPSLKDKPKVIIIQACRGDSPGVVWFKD
T1 sequence (P29466 317-404 limits assumed): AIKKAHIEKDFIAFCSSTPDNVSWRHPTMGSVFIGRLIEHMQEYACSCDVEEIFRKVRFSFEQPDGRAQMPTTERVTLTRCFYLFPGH
Experiment: Enzyme kinetic studies with caspase-1
Type: biochemical
Conditions: probe 0.5–4 μM, Cas-1 2 U/mL, HEPES assay buffer, 37 °C, read every 2 min, λex 510 nm/λem 585 nm, Lineweaver-Burk plot; read-out: Michaelis constant (KM)
Procedure: The spectral and chemical properties of all probes were then evaluated. Upon interaction with Cas-1, the specific peptide of the probes is cleaved, leading to the disruption of the FRET process in the system and the recovery of donor fluorescence (Fig. 2a). Prior to fluorescence detection, the UV-vis absorption spectra of the probes were acquired. […] Subsequently, the sensitivity of the probes towards Cas-1 was measured in HEPES buffer (50 mM HEPES, 50 mM NaCl, 0.1% chaps, 5% glycerol, 10 mM DTT, 10 mM EDTA). […] The response differences among the probes were more intuitively observed by analyzing the standard curves of fluorescence intensity at 585 nm against the concentration of Cas-1 (Fig. 2b). […] The reaction kinetics of the probes were also measured by monitoring the fluorescence intensity of FPy1, YPy1 and WPy1 (0.5–4 μM) following incubation with Cas-1 (2 U mL^−1) (Fig. S3a–f). […] The reaction time of the probes was also investigated by monitoring the fluorescence spectra of the probes (5 μM) incubated with Cas-1 (2 U mL^−1) at various time intervals (Fig. S4a–c). […] Finally, the selectivity of the probes was evaluated. A series of potential biologically relevant interferents were selected, and the results illustrated that these interferents had no effect on the probes (Fig. S5a–c). […]

Which Km does the source give for “–FLTDG– [FPy1, RhoB donor, hNR quencher]” here?
The Km was 4.42 µM.
